Data set [1] concerns the target T1, Hfq (UniProt P0A6X3 1-102). Kind of data set: EMSA. On the technique in general: In EMSA bound probe runs differently from free probe, usually more slowly.
Data set [2] has as its target T1, Hfq. Kind of data set: EMSA. This is another data set of the same source.

This is an account of results in paper PMC3597676.

T1 sequence (P0A6X3 whole entry): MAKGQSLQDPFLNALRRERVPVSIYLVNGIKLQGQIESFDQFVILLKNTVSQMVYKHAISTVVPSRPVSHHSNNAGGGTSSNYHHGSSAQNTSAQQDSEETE

B1: MicAstab (structured_RNA)
RNA: GAAAGACGCGCAUUUGUUAUCAUCAUCCCUGGGAAAGCGACCGUUUCCCUGGCCACUCACGAGUGGCCUUUUAAAA
Broadly, the Kd is the constant that tells how readily two partners part at equilibrium. Low readings indicate a tighter complex, high ones a looser complex. The molecule B1 showed a Kd in data set [1] of 1.5 nM.

B2: MicAstab + ompA leader (structured_RNA)
RNA 1: GAAAGACGCGCAUUUGUUAUCAUCAUCCCUGGGAAAGCGACCGUUUCCCUGGCCACUCACGAGUGGCCUUUUAAAA
RNA 2: GGGCCAGGGGUGCUCGGCAUAAGCCGAAGAUAUCGGUAGAGUUAAUAUUGAGCAGAUCCCCCGGUGAAGGAUUUAACCGUGUUAUCUCGUUGGAGAUAUUCAUGGCGUAUUUUGGAUGAUAACGAGGCGCAAAAAAUGAAAAAGACAGCUAUCGCGAUUGCAGUGGCA
On to B2, for which the binding result in data set [2] was “binds”.
